Reference: paper PMC6529188 (Cell, 2019)
Where no end group is shown, it is not given here.

What was measured:
[1] = biological target: the molecule itself; experiment: SDS-PAGE without boiling of bicelle-reconstituted protein
cross-linking = biological target: the molecule itself; experiment: cross-linking

Protein	stoichiometry N [1]	stoichiometry N (cross-linking)
PGSLSGIIIGVTVAAVVLIVAVFVCKSLLWKKVLP (domain or fragment, UniProt O14763-1 208-242, looked up) [DR5^TMH (human DR5 isoform 1 residues 208-242, C209G), wild type]	3	
PGSLSGIIIGVTVAAVVLIVAVFVCKSLLWKKVLP (domain or fragment, human, UniProt O14763-1 208-242, looked up, also: His6-tagged, active amine groups blocked with Sulfo-NHS Acetate) [His6-tagged DR5^TMH, wild type (for OG-label)]		6
PGSLSGIIIYVTVAAVVLIVAVFVCKSLLWKKVLP (domain or fragment, human, UniProt O14763-1 208-242, looked up, also: His6-tagged, active amine groups blocked with Sulfo-NHS Acetate) [His6-tagged DR5^TMH G217Y mutant (for OG-label)]		3
PGSLSGIIIYVTVAAVVLIVAVFVCKSLLWKKVLP (domain or fragment, human, UniProt O14763-1 208-242, looked up) [DR5^TMH G217Y mutant]	3	
PGSLSGIIIGVTVAAVVLIYAVFVCKSLLWKKVLP (domain or fragment, human, UniProt O14763-1 208-242, looked up) [DR5^TMH V227Y mutant]	3	
PGSLSGIIIGVTVAAVVLIYAVFVCKSLLWKKVLP (domain or fragment, human, UniProt O14763-1 208-242, looked up, also: His6-tagged, active amine groups blocked with Sulfo-NHS Acetate) [His6-tagged DR5^TMH V227Y mutant (for OG-label)]		6
